Results taken from paper PMC8913300, “Two distinct classes of cochaperones compete for the EEVD motif in heat shock protein 70 to tune its chaperone activities” (The Journal of Biological Chemistry, 2022).

Test system: Hsp72–DnaJB4 complex
Assay: Luciferase refolding by Hsp72/DnaJB4 in the presence of TPR cochaperones
Type: biochemical
Settings: 1 μM Hsp72, 100 nM denatured luciferase, 120 nM DnaJB4; CHIP titration or 10 μM TPR protein; 1 h at 37 °C
Protocol: Experiments were performed as described ([14]). Briefly, Renilla luciferase (Promega) was denatured in 8 M GdnHCl for 2 h at room temperature. Hsp72 (1 μM) and denatured luciferase (100 nM) were diluted into a working concentration in buffer containing an ATP regenerating system (23 mM Hepes, 120 mM KAc, 1.2 mM MgAc, 15 mM DTT, 61 mM creatine phosphate, 35 units/ml creatine kinase, and 5 ng/μl bovine serum albumin, pH 7.4). A titration series of DnaJB4 was added, and the reaction was initiated with the addition of 2.5 mM ATP. For competition assays with DnaJB4, complexes of Hsp72 (1 μM), denatured luciferase (100 nM), and DnaJB4 (120 nM) were incubated with either a titration of CHIP or 10 μM of indicated TPR protein. In all cases, the assay was allowed to incubate for 1 h at 37 °C in white, 96-well flat-bottom plates (Corning 3990). Luminescence was measured using the SteadyGlo luminescence reagent (Promega), and percent refolded luciferase was calculated using a standard curve of 100 to 0 nM native luciferase.

effect on client (luciferase) refolding by Hsp72–DnaJB4: strongly promoted luciferase refolding
B1: DnaJC7: TPR cochaperone that also contains a J-domain (protein, UniProt Q99615 2-494, looked up)
DnaJ homolog subfamily C …: AAAAECDVVMAATEPELLDDQEAKREAETFKEQGNAYYAKKDYNEAYNYYTKAIDMCPKNASYYGNRAATLMMLGRFREALGDAQQSVRLDDSFVRGHLREGKCHLSLGNAMAACRSFQRALELDHKNAQAQQEFKNANAVMEYEKIAETDFEKRDFRKVVFCMDRALEFAPACHRFKILKAECLAMLGRYPEAQSVASDILRMDSTNADALYVRGLCLYYEDCIEKAVQFFVQALRMAPDHEKACIACRNAKALKAKKEDGNKAFKEGNYKLAYELYTEALGIDPNNIKTNAKLYCNRGTVNSKLRKLDDAIEDCTNAVKLDDTYIKAYLRRAQCYMDTEQYEEAVRDYEKVYQTEKTKEHKQLLKNAQLELKKSKRKDYYKILGVDKNASEDEIKKAYRKRALMHHPDRHSGASAEVQKEEEKKFKEVGEAFTILSDPKKKTRYDSGQDLDEEGMNMGDFDPNNIFKAFFGGPGGFSFEASGPGNFFFQFG
